From article PMC12617621 (Computational and Structural Biotechnology Journal, 2025) come the findings set out here.

The target of this assay is T1, (NPNA)4 peptide (Plasmodium falciparum CSP repeat …).
T1 chain: NPNANPNANPNANPNA
The assay can be described thus: SPR. In general terms: In SPR one partner is held on a chip, and binding of the other changes the refractive index at the surface.

B1: native anti-NANP Fab (Fab, V domains shown)
VH: EVQLVESGGGLVQPGRSLRLPCTASGFSFGDHAMSWVRQAPGKGLEWVGFIRKTTYGATTHYAAAVRGRFTISRDDSKSIVYLQMNSLKTEDTAVYFCTRVQLDYGPGYQYYGMDVWGQGTTVTVSS
VL: ESVLTQPPSVSGAPGQRVTISCTGMNSNIGAGYDVYWYQQLPGRAPKLLIYGNSNRPSGVPDRFSGSRSGTSASLAITGLQAEDEADYYCQSYDTSLNGWAFGGGTKLTVL
Turning to B1, the binding result is “binds”.

B2: G112T mutant anti-NANP Fab (Fab, V domains shown)
VH: B1 VH
VL: B1 VL
In the case of B2, the binding result is listed as “binds”.
